T1: APBA1_2, Q02410
T1 sequence (Q02410 742-832, limits assumed, looked up): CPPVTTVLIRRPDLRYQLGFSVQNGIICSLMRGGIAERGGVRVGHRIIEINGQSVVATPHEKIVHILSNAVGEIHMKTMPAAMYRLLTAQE

T2: GRIP1_7, Q9Y3R0
T2 sequence (Q9Y3R0 999-1096, limits assumed, looked up): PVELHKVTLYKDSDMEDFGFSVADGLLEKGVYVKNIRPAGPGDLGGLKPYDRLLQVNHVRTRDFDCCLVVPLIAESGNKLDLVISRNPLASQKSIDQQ

T3: LIN7B, Q9HAP6
T3 sequence (Q9HAP6 88-185, limits assumed, looked up): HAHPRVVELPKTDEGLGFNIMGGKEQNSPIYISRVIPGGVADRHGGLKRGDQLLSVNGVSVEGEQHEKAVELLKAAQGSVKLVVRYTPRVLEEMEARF

T4: MPDZ_10, O75970
T4 sequence (O75970 1624-1722, limits assumed, looked up): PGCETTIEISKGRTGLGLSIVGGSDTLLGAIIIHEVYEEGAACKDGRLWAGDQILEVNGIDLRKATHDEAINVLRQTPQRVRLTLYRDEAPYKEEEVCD

T5: MPP2, Q14168
T5 sequence (Q14168 180-250, limits assumed, looked up): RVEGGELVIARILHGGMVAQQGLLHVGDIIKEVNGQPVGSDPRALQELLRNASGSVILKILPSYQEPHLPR

T6: MPP7, Q5T2T1
T6 sequence (Q5T2T1 134-230, limits assumed, looked up): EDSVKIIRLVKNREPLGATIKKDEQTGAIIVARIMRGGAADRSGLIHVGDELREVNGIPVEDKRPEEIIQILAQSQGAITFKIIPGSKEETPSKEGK

T7: NHERF3_3, Q5T2W1
T7 sequence (Q5T2W1 238-333, limits assumed, looked up): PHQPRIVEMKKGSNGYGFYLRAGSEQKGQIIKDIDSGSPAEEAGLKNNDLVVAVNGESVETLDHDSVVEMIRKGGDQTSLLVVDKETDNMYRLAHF

T8: PTPN13_1, Q12923
T8 sequence (Q12923 1088-1188, limits assumed, looked up): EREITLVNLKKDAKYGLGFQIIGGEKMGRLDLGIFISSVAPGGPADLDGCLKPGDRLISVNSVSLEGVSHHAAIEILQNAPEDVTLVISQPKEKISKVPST

T9: RAPGEF6, Q8TEU7
T9 sequence (Q8TEU7 525-625, limits assumed, looked up): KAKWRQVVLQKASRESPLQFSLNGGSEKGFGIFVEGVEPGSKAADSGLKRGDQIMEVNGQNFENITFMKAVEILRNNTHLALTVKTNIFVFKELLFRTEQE

T10: SHANK1, Q9Y566
T10 sequence (Q9Y566 658-767, limits assumed, looked up): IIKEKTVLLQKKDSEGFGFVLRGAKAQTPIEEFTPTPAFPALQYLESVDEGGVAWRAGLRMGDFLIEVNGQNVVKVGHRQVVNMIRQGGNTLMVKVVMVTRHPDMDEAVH

T11: SNTA1, Q13424
T11 sequence (Q13424 82-180, limits assumed, looked up): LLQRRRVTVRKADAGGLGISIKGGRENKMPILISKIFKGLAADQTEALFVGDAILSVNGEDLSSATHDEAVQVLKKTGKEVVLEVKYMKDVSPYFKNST

T12: SNTG1, Q9NSN8
T12 sequence (Q9NSN8 52-150, limits assumed, looked up): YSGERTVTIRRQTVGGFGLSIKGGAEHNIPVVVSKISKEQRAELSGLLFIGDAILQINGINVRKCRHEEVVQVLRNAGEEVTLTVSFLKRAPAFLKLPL


Legend:
Assay in all cases: holdup assay
Design in all cases: key: below the threshold = too weak to quantify, mostly under pKd 3.1 to 4
Conditions in all cases: plain residues with an end cap or a label only (N-terminal biotin on a linker: ttds)
APBA1_2, Q02410 = target: T1, APBA1_2, Q02410
DLG4_3, P78352 = target: DLG4_3, P78352
DLG5_1, Q8TDM6 = target: DLG5_1, Q8TDM6
FRMPD2_2, Q68DX3 = target: FRMPD2_2, Q68DX3
GRIP1_7, Q9Y3R0 = target: T2, GRIP1_7, Q9Y3R0
IL16_1, Q14005 = target: IL16_1, Q14005
Inadl_4, Q8NI35 = target: Inadl_4, Q8NI35
Inadl_6, Q8NI35 = target: Inadl_6, Q8NI35
LIN7B, Q9HAP6 = target: T3, LIN7B, Q9HAP6
LNX1_1, Q8TBB1 = target: LNX1_1, Q8TBB1
MAGI1_2, Q96QZ7 = target: MAGI1_2, Q96QZ7
MAGI2_6, Q86UL8 = target: MAGI2_6, Q86UL8
MPDZ_10, O75970 = target: T4, MPDZ_10, O75970
MPP2, Q14168 = target: T5, MPP2, Q14168
MPP7, Q5T2T1 = target: T6, MPP7, Q5T2T1
NHERF3_3, Q5T2W1 = target: T7, NHERF3_3, Q5T2W1
NHERF4_1, Q86UT5-2 = target: NHERF4_1, Q86UT5-2
NHERF4_4, Q86UT5 = target: NHERF4_4, Q86UT5
PICK1, Q9NRD5 = target: PICK1, Q9NRD5
PTPN13_1, Q12923 = target: T8, PTPN13_1, Q12923
PTPN3, P26045 = target: PTPN3, P26045
RAPGEF6, Q8TEU7 = target: T9, RAPGEF6, Q8TEU7
SHANK1, Q9Y566 = target: T10, SHANK1, Q9Y566
SNTA1, Q13424 = target: T11, SNTA1, Q13424
SNTG1, Q9NSN8 = target: T12, SNTG1, Q9NSN8
SNX27, Q96L92 = target: SNX27, Q96L92

Sequence of DLG5_1, Q8TDM6 (Q8TDM6 617-713): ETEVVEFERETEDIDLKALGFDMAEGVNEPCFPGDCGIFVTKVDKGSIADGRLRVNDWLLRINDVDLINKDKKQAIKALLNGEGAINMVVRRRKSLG
Sequence of Inadl_4, Q8NI35 (Q8NI35 547-651): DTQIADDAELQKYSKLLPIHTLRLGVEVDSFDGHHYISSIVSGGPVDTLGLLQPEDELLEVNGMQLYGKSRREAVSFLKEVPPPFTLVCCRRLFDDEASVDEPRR
Sequence of IL16_1, Q14005 (Q14005 210-306): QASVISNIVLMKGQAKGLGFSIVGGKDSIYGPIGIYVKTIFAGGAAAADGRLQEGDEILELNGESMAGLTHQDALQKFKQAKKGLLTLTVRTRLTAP
Sequence of FRMPD2_2, Q68DX3 (Q68DX3 944-1038): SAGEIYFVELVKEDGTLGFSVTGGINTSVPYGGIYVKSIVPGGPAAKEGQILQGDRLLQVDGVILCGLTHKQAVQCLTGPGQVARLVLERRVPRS
Sequence of PICK1, Q9NRD5 (Q9NRD5 17-115): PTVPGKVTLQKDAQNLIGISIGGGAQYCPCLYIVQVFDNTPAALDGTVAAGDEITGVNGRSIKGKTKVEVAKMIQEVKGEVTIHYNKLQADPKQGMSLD
Sequence of MAGI2_6, Q86UL8 (Q86UL8 1141-1229): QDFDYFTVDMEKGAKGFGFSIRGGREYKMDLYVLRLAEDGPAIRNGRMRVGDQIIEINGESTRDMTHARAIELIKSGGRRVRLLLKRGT
Sequence of NHERF4_1, Q86UT5-2 (Q86UT5 other isoform, or with tags, fused parts or gaps): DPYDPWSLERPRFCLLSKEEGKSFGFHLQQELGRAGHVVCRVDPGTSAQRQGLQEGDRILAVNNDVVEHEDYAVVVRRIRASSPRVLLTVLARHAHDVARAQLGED
Sequence of Inadl_6, Q8NI35 (Q8NI35 1058-1167): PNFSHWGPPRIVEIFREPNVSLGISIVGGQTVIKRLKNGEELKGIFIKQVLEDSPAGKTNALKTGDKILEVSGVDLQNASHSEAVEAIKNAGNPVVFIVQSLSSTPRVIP
Sequence of MAGI1_2, Q96QZ7 (Q96QZ7 456-580): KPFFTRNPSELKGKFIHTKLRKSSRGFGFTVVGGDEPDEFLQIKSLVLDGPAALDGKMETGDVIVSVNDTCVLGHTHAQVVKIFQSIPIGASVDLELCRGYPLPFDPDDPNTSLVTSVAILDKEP
Sequence of NHERF4_4, Q86UT5 (Q86UT5 464-550): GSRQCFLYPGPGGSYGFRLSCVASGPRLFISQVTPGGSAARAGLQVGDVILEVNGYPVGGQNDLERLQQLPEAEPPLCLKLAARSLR
Sequence of PTPN3, P26045 (P26045 505-587): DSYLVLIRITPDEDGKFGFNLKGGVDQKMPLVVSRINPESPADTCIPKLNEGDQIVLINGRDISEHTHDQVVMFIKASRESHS
Sequence of LNX1_1, Q8TBB1 (Q8TBB1 261-371): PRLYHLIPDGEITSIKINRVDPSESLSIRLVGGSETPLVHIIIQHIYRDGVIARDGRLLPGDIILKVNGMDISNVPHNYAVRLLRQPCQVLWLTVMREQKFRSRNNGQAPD
Sequence of DLG4_3, P78352 (P78352 306-403): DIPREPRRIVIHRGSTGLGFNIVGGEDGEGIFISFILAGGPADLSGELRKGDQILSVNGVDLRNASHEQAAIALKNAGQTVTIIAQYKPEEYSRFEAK

Row | pKd (APBA1_2, Q02410) | pKd (DLG4_3, P78352) | pKd (DLG5_1, Q8TDM6) | pKd (FRMPD2_2, Q68DX3) | pKd (GRIP1_7, Q9Y3R0) | pKd (IL16_1, Q14005) | pKd (Inadl_4, Q8NI35) | pKd (Inadl_6, Q8NI35) | pKd (LIN7B, Q9HAP6) | pKd (LNX1_1, Q8TBB1) | pKd (MAGI1_2, Q96QZ7) | pKd (MAGI2_6, Q86UL8) | pKd (MPDZ_10, O75970) | pKd (MPP2, Q14168) | pKd (MPP7, Q5T2T1) | pKd (NHERF3_3, Q5T2W1) | pKd (NHERF4_1, Q86UT5-2) | pKd (NHERF4_4, Q86UT5) | pKd (PICK1, Q9NRD5) | pKd (PTPN13_1, Q12923) | Binder | also measured
1 | below the threshold | 4.31 | below the threshold | below the threshold | below the threshold | below the threshold | below the threshold | below the threshold | below the threshold | below the threshold | 4 | below the threshold | below the threshold | below the threshold | below the threshold | below the threshold | below the threshold | below the threshold | below the threshold | below the threshold | QRPYRRESEI [KCNJ12, Q14500] | pKd (PTPN3, P26045): 4.65; pKd (RAPGEF6, Q8TEU7): below the threshold; pKd (SHANK1, Q9Y566): below the threshold; pKd (SNTA1, Q13424): 3.97; pKd (SNTG1, Q9NSN8): 3.82; pKd (SNX27, Q96L92): below the threshold
2 | 4.23 | 3.8 | below the threshold | 4.22 | 4.11 | 3.78 | below the threshold | below the threshold | below the threshold | 3.81 | 3.65 | 4.39 | below the threshold | below the threshold | below the threshold | below the threshold | below the threshold | below the threshold | below the threshold | below the threshold | GRLLGLETNV [ARHGEF26, Q96DR7] | pKd (PTPN3, P26045): 4.69; pKd (RAPGEF6, Q8TEU7): below the threshold; pKd (SHANK1, Q9Y566): below the threshold; pKd (SNTA1, Q13424): 4.7; pKd (SNTG1, Q9NSN8): 4.95; pKd (SNX27, Q96L92): 4.49
3 | below the threshold | 3.46 | below the threshold | 4.99 | 3.61 | 3.87 | below the threshold | 4.3 | 3.77 | 3.83 | below the threshold | 4.31 | below the threshold | below the threshold | below the threshold | below the threshold | 3.6 | below the threshold | below the threshold | below the threshold | NPDALPETLV [ARHGAP6, O43182] | pKd (PTPN3, P26045): 4.44; pKd (RAPGEF6, Q8TEU7): below the threshold; pKd (SHANK1, Q9Y566): below the threshold; pKd (SNTA1, Q13424): 5.05; pKd (SNTG1, Q9NSN8): 5.33; pKd (SNX27, Q96L92): 4.7

From PMC9482650, “Quantitative fragmentomics allow affinity mapping of interactomes” (Nature Communications, 2022)
